Measured values reported in article PMC7954794, “Protein context shapes the specificity of SH3 domain-mediated interactions in vivo” (Nature Communications, 2021).
No end group written: not given here.

B1: PAK1 peptide (DIQDKPPAPPMRNTST), fluorescein isothiocyanate-conjugated (peptide)
peptide: DIQDKPPAPPMRNTST
modifications: also: fluorescein isothiocyanate-conjugated (position not given here)
notes: peptide of PAK1, ligand of NCK2 SH3-2; also called PAK1 target peptide
B2: Cd3ε peptide (RGQNKERPPPVPNPDY), fluorescein isothiocyanate-conjugated (peptide)
peptide: RGQNKERPPPVPNPDY
modifications: also: fluorescein isothiocyanate-conjugated (position not given here)
notes: peptide of CD3 epsilon, ligand of NCK2 SH3-1; also called CD3Ɛ

Molecular target: T1, NCK2 full-length recombinant protein (mouse, WT, tag-free) (mouse, UniProt O55033 1-380)
T1 construct: NCK2, mouse, full-length recombinant; also called WT NCK2; NCK2 1|2|3; source: E. coli BL21 (DE3), purified (GSTrap, TEV cleavage, HisTrap)
T1 sequence (O55033 whole entry): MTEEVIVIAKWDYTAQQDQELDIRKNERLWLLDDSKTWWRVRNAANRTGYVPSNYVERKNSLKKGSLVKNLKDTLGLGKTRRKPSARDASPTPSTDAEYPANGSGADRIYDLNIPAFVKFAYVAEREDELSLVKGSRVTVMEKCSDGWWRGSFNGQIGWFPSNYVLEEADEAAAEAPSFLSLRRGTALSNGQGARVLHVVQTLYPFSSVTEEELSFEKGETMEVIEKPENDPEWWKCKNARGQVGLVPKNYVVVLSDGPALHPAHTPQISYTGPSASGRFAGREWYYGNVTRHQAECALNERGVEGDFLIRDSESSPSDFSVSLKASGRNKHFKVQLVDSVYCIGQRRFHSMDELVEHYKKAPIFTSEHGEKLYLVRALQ
Assay: fluorescence polarisation; 40 nM fluorescein isothiocyanate-conjugated peptide, NCK2 titrated (0-150 μM for CD3ε, 0-175 μM for PAK1); 17 mM Tris-HCl pH 8, 100 mM NaCl; one-site total binding model; triplicates
Conditions: both partners purified

Binder | binding result
B1 | binds
B2 | binds
